B1: PDL1c-E-LN (bispecific antibody)
heavy: not shown
light: EVQLVESGGGLVQPGGSLRLSCAASGRTFITYAIGWFRQAPGKGREFVSAISWSGSMTSYADSVKGRFTISRDNAKNTLYLQMNSLRPEDTAVYYCAAHRGAIAPIAQSVYTNWGQGTLVTVSSEPKSSDKTHTSPPSPEIVLTQSPATLSLSPGERATLSCRASENVGTYISWYQQKPGQAPRLLIYGASNRYTGIPARFSGSGSGTDFTLTISSLEPEDFAVYYCGESYGHLYTFGGGTKVEIKRTVAAPSVFIFPPSDEQLKSGTASVVCLLNNFYPREAKVQWKVDNALQSGNSQESVTEQDSKDSTYSLSSTLTLSKADYEKHKVYACEVTHQGLSSPVTKSFNRGEC
B2: PDL1a-E-LN (bispecific antibody)
heavy: not shown
light: EVQLVESGGGLVQPGGSLRLSCAASGRTFVTYGMGWFRQAPGKGREFVSAISWSGSMTSYGDSVKGRFTISRDNAKNTLYLQMNSLRPEDTAVYYCAAALGAVVYTTREPYTYWGQGTLVTVSSEPKSSDKTHTSPPSPEIVLTQSPATLSLSPGERATLSCRASENVGTYISWYQQKPGQAPRLLIYGASNRYTGIPARFSGSGSGTDFTLTISSLEPEDFAVYYCGESYGHLYTFGGGTKVEIKRTVAAPSVFIFPPSDEQLKSGTASVVCLLNNFYPREAKVQWKVDNALQSGNSQESVTEQDSKDSTYSLSSTLTLSKADYEKHKVYACEVTHQGLSSPVTKSFNRGEC
B3: PDL1b-E-LN (bispecific antibody)
heavy: not shown
light: B2 light with M57S
B4: PDL1a-G15-LN (bispecific antibody)
heavy: not shown
light: EVQLVESGGGLVQPGGSLRLSCAASGRTFVTYGMGWFRQAPGKGREFVSAISWSGSMTSYGDSVKGRFTISRDNAKNTLYLQMNSLRPEDTAVYYCAAALGAVVYTTREPYTYWGQGTLVTVSSGGGGSGGGGSGGGGSEIVLTQSPATLSLSPGERATLSCRASENVGTYISWYQQKPGQAPRLLIYGASNRYTGIPARFSGSGSGTDFTLTISSLEPEDFAVYYCGESYGHLYTFGGGTKVEIKRTVAAPSVFIFPPSDEQLKSGTASVVCLLNNFYPREAKVQWKVDNALQSGNSQESVTEQDSKDSTYSLSSTLTLSKADYEKHKVYACEVTHQGLSSPVTKSFNRGEC
B5: PDL1a-E-HN (bispecific antibody)
heavy: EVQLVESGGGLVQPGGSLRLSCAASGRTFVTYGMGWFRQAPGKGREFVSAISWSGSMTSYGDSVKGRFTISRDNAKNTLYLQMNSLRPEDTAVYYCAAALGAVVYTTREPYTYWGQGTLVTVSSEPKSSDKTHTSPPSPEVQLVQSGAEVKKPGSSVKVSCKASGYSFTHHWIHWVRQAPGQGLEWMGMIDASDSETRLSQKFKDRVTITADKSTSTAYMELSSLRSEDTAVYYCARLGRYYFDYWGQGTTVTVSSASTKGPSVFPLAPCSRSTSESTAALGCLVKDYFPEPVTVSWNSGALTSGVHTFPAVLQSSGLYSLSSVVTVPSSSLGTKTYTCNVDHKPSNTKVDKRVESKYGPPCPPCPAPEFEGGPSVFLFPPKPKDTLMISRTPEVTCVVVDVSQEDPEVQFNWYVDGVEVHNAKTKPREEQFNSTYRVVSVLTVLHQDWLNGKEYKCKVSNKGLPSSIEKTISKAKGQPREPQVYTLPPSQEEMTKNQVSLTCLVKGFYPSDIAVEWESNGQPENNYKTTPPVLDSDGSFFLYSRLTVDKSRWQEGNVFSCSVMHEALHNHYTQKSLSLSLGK
light: EIVLTQSPATLSLSPGERATLSCRASENVGTYISWYQQKPGQAPRLLIYGASNRYTGIPARFSGSGSGTDFTLTISSLEPEDFAVYYCGESYGHLYTFGGGTKVEIKRTVAAPSVFIFPPSDEQLKSGTASVVCLLNNFYPREAKVQWKVDNALQSGNSQESVTEQDSKDSTYSLSSTLTLSKADYEKHKVYACEVTHQGLSSPVTKSFNRGEC
B6: PDL1c-E-HN (bispecific antibody)
heavy: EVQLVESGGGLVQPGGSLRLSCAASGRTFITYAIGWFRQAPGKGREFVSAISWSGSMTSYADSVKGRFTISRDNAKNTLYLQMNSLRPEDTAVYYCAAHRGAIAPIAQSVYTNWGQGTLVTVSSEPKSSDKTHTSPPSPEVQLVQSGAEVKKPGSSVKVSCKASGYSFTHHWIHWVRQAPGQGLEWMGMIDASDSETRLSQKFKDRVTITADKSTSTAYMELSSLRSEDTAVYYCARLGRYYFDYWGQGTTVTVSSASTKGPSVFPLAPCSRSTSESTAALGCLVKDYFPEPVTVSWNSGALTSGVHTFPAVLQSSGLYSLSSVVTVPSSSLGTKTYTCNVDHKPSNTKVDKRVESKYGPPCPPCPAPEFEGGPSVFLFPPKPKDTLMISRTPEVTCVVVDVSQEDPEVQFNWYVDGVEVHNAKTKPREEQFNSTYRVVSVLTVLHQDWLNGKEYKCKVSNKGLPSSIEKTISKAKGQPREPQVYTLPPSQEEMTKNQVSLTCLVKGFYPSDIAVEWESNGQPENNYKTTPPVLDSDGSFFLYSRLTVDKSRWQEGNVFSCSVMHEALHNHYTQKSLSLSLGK
light: B5 light
B7: anti-CD47 monoclonal antibody (mAb) (antibody, V domains shown)
VH: EVQLVQSGAEVKKPGSSVKVSCKASGYSFTHHWIHWVRQAPGQGLEWMGMIDASDSETRLSQKFKDRVTITADKSTSTAYMELSSLRSEDTAVYYCARLGRYYFDYWGQGTTVTVSS
VL: EIVLTQSPATLSLSPGERATLSCRASENVGTYISWYQQKPGQAPRLLIYGASNRYTGIPARFSGSGSGTDFTLTISSLEPEDFAVYYCGESYGHLYTFGGGTKVEIKR
B8: PDL1b-E-HC (bispecific antibody)
heavy: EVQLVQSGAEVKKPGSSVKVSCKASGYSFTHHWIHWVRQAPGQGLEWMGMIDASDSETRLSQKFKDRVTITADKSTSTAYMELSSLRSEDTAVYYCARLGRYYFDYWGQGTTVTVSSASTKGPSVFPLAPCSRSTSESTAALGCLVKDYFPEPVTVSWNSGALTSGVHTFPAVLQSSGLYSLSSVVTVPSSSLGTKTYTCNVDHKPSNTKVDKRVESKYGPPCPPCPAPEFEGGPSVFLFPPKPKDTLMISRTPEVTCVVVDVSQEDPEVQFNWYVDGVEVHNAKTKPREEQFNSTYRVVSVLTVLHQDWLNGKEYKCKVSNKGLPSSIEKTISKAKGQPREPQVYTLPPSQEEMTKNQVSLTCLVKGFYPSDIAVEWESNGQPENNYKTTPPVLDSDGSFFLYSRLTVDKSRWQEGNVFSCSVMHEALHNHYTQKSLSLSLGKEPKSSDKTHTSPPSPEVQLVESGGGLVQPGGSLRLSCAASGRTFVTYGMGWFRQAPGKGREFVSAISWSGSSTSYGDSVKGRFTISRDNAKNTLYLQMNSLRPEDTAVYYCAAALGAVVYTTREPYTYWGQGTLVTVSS
light: B5 light
B9: PDL1a-G15-HC (bispecific antibody)
heavy: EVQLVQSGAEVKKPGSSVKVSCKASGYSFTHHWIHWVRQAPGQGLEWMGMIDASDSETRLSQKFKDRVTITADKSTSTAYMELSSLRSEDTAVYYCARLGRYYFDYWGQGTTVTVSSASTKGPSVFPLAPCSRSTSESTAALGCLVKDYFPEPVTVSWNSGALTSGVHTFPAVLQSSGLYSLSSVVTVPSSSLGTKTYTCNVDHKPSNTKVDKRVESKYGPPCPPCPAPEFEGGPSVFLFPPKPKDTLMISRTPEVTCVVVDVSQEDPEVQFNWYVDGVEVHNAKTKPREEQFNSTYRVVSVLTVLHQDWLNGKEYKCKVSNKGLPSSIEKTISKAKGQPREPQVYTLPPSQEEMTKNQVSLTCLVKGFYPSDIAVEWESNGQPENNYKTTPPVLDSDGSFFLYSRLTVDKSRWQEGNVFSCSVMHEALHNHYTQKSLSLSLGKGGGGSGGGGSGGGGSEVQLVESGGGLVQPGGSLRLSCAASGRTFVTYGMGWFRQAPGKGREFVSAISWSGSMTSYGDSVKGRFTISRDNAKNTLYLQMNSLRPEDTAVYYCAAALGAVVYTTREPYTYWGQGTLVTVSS
light: B5 light
B10: PDL1c-E-HC (bispecific antibody)
heavy: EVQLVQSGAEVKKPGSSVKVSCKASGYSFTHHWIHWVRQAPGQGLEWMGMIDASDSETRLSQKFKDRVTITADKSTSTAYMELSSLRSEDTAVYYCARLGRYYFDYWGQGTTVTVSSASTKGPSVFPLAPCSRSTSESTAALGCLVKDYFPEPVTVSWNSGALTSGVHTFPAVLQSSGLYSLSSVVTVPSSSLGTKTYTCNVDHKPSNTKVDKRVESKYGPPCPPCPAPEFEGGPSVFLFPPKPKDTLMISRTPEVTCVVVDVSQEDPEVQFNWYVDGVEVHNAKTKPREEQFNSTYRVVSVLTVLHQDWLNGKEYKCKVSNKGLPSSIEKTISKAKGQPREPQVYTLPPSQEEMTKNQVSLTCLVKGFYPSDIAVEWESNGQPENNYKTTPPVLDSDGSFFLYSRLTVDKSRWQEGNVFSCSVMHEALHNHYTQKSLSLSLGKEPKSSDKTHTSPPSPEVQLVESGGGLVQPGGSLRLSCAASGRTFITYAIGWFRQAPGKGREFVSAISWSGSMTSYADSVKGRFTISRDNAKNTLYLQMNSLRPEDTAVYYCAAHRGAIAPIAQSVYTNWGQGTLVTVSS
light: B5 light
B11: PDL1b-E-HN (bispecific antibody)
heavy: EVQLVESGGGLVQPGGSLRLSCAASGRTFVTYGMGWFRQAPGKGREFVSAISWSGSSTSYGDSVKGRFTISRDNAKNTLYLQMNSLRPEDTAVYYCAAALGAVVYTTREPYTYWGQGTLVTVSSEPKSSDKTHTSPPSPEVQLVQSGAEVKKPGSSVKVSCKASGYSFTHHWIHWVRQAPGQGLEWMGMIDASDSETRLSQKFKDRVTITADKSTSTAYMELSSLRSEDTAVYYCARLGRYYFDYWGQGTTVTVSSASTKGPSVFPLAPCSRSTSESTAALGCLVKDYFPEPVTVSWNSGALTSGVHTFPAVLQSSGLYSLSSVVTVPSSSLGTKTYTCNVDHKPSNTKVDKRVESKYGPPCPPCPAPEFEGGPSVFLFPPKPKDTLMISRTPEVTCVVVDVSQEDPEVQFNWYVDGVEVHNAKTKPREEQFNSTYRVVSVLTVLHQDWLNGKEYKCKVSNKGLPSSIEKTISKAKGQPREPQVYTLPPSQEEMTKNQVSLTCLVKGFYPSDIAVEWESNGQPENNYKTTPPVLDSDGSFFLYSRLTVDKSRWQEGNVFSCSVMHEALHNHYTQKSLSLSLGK
light: B5 light
B12: PDL1a-G15-HN (bispecific antibody)
heavy: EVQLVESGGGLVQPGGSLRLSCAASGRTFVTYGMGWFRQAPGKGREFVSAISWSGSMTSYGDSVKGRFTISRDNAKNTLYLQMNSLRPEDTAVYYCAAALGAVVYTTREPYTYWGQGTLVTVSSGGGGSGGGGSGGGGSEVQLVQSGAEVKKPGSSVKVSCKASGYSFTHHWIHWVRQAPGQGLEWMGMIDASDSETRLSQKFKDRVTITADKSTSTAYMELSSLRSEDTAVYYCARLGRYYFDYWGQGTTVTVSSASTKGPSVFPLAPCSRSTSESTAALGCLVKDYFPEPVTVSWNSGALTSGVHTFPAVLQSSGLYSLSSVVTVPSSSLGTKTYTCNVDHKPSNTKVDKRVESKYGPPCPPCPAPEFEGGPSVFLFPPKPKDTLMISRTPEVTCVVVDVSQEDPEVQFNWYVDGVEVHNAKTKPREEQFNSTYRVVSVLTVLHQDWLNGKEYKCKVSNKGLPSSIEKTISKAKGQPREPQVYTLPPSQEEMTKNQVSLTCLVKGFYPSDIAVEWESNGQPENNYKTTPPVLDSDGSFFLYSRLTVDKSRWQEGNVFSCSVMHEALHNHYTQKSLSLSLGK
light: B5 light
B13: PDL1a-E-HC (bispecific antibody)
heavy: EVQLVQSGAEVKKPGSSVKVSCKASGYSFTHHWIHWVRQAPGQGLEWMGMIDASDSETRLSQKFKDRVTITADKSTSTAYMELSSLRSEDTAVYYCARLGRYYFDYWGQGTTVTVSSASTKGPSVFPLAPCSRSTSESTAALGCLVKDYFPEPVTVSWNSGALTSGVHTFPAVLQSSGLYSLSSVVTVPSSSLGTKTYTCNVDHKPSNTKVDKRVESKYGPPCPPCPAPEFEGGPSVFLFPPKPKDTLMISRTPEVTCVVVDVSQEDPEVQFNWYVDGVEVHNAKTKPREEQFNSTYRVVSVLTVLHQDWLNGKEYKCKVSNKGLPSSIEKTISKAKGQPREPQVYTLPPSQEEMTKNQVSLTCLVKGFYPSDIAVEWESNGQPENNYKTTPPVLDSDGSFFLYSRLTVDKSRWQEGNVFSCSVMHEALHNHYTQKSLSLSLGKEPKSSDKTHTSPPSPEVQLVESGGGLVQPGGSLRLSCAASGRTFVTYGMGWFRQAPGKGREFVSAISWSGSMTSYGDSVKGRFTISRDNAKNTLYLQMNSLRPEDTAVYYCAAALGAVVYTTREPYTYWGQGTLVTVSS
light: B5 light

The values that follow come from patent US20220289848A1 (published 2022).

Residue numbers refer to the chain shown, from its start.

Sequence of PD-L1 expressed on CHO-K1 cells (Q9NZQ7 19-290): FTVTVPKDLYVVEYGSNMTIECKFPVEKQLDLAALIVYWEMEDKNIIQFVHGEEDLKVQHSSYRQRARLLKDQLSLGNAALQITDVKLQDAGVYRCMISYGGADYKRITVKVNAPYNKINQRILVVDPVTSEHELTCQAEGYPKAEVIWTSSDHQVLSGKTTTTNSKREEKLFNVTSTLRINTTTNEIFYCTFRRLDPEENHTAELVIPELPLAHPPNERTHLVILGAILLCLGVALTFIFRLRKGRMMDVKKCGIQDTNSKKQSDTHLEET

One assay has as its target PD-L1 expressed on CHO-K1 cells (UniProt Q9NZQ7 19-290). Briefly: FACS binding, CHO-K1 cells expressing PD-L1.
Regarding B1, the midpoint of the response, the EC50, lay at 0.718 nM.

The molecule B2 registered a concentration for a half-maximal effect (EC50) of 0.351 nM.

B3 returned an EC50 of 1.18 nM.

B4: the EC50 came to 1.11 nM.

The molecule B5 came in with an EC50 of 0.759 nM.

Regarding B6, the EC50 was 1.48 nM.

A further assay addresses CD47 expressed on CHO-K1 cells (UniProt Q08722 19-323). The experiment in a line: FACS.
Take B7: a half-maximal effect (EC50) was put at 0.325 nM.

In turn, B5 yielded an EC50 of 0.854 nM.

In the case of B8, it took 0.328 nM to reach a half-maximal effect (EC50).

In turn, B9 had an EC50 of 0.247 nM.

Molecule B10 had a 50% effective concentration (EC50) of 0.287 nM.

B11 returned an EC50 of 0.521 nM.

In turn, B12 registered a concentration giving a half-maximal response (EC50) of 0.664 nM.

For the molecule B13, a half-maximal response (EC50) required 0.255 nM.

Regarding B6, the concentration for a half-maximal effect (EC50) amounted to 0.7 nM.

As a reminder, the EC50 is the midpoint of the concentration-response curve.
